Measurements published in patent US8889130B2, “Treatment of osteoarthritis and pain” (Abbvie Inc., priority 2011, dated 2014).

Tests used:
Male SV129 mice = assay: Destabilization of medial meniscus (DMM) model of osteoarthritis, cartilage degeneration (Chambers scores); assay type: in vivo, mouse; conditions: Example 3.3.6 (FIG. 7); 8 weeks; mAbs 6 mg/kg alone or in combination
Excerpt: (§1) Male SV129 mice weighing approximately 30 grams, housed 5/cage, were anesthetized on Day 0 with ketamine/xylazine cocktail, administered intraperitoneally (ip), and then the medial collateral ligament was exposed by blunt dissection, and transected to reflect the meniscus toward the femur. The joint space was closed with 8-0 vicryl suture. The skin was closed with wound glue. For sham surgeries, a vertical skin incision was made over the medial aspect of the knee and the joint capsule was opened. The capsule was closed with 8-0 vicryl suture and the skin was closed with wound glue. Groups of animals were then treated with intraperitoneal (ip) injections of antibody or vehicle according to the study design table below. Two sex-matched, age-matched, and strain-matched naïve mice were also included in the study. Animals were euthanized after 8 weeks of treatment, and knee joints were harvested in 10% neutral buffered formalin.
Formalin-fixed samples were decalcified, and specimens were sectioned in the frontal plane into 15 step sections each. Each section was approximately 6 μm thick, and step sections were separated by 70 μm. All slides were stained with toluidine blue (T. Blue). Slides were assessed according to the Chambers method (Chambers et al. (2001) Arthritis Rheum 44:1455-65) for cartilage degeneration (see below) by a board-certified veterinary pathologist. Each of the four cartilage surfaces, the medial femoral condyle (MFC), the medial tibial plateau (MTP), the lateral femoral condyle (LFC), and the lateral tibial plateau (LTP), was scored from 0-6 according to the scale in the table below.
as §1, with “8-0 vicryl suture, and the” for “8-0 vicryl suture and the”, “injections of anti-mIL-1α monoclonal antibody, anti-mIL-1β (alone or in combination), mIL-1α/βDVD-Ig binding protein, or vehicle” for “injections of antibody or vehicle”, “design table below (Table 24). Animals were” for “design table below. Two sex-matched, age-matched, and strain-matched naïve mice were also included in the study. Animals were”, “weeks of treatment and knee” for “weeks of treatment, and knee”
Male SV129 mice weighing approximately 30 grams had the medial collateral ligament exposed by blunt dissection, and transected to reflect the meniscus toward the femur. The joint space was closed with 8-0 vicryl suture. The skin was closed with wound glue. For sham surgeries, a vertical skin incision was made over the medial aspect of the knee and the joint capsule was opened. The capsule was closed with 8-0 vicryl suture, and the skin was closed with wound glue. Groups of animals were then treated per os (po) or via intraperitoneal (ip) injections of vehicle or treatments according to the study design table below. Three sex-matched, age-matched, and strain-matched naïve mice were also included in the study. Animals were euthanized after 4 weeks of treatment, and knee joints were harvested in 10% neutral buffered formalin.

male DBA-1 mice = assay: Collagen-induced arthritis mouse model (rheumatoid arthritis); assay type: in vivo; conditions: therapeutic mode; 1-3 mg/kg intraperitoneally every other day after disease onset
Protocol: The therapeutic effects of anti-IL-1α, anti-IL-1β, combined anti-IL-1α/anti-IL-1β, and murine IL-1α/β DVD4-Ig, were evaluated in a collagen-induced arthritis mouse model well known in the art. Briefly, male DBA-1 mice were immunized with bovine type II collagen in CFA at the base of the tail. The mice were boosted with Zymosan intraperitoneally (i.p) at day 21. After disease onset at day 24-27, mice were selected and divided into separate groups of 10 mice each. […] To neutralize IL-1, mice were injected every other day with 1-3 mg/kg of anti-IL-1α mAb, anti-IL-1βmAb, combination of anti-IL-1α and anti-IL-1β mAbs, or murine IL-1α/β DVD4-Ig intraperitoneally. Mice were carefully examined three times a week for the visual appearance of arthritis in peripheral joints, and scores for disease activity determined.

DMM mice = assay: DMM model of osteoarthritis, mechanical allodynia (paw withdrawal threshold); assay type: in vivo, mouse; conditions: Example 5 (FIG. 12); 6 mg/kg ip twice per week for four weeks; day 28
Protocol: The DMM model also generates measurable pain in the mice. […] The efficacy of anti-IL-1α/β therapy was studied in the DMM animal model.
The potential of anti-IL-1 therapy to ameliorate pain was tested in the DMM mouse model of OA in terms of mechanical allodynia. Dosing of the combination of IL-1α and IL-1β mAbs was initiated on the day of the surgery and was repeated twice a week for 5 weeks. Animals were treated with PBS vehicle alone, with an IgG isotype control, or with a combination of anti-IL-1α and anti-IL-1β mAbs (at a dose of 6 mg/kg for each mAb). Animals were tested weekly for paw withdrawal threshold. […] This reduction in pain was seen as early as week 1 following treatment (data not shown).
To evaluate the effect of IL-1 therapy in established pain, animals in the IgG control group with established OA and mechanical allodynia were treated on day 35 with the combination of anti-IL-1α and anti-IL-1β monoclonal antibodies and the paw withdrawal threshold was tested 24 hours later (day 36).
The potential of anti-IL-1 therapy to ameliorate pain in the DMM mouse model of OA (see, above) in terms of mechanical allodynia was further evaluated. Dosing of the combination of IL-1α and IL-1β mAbs was initiated on the day of the surgery and was repeated twice a week for 4 weeks. […]

B1: 10G11: mouse anti-mouse IL-1β monoclonal antibody (clone 10G11) from IL-1α/β double KO mice (antibody, V domains shown)
VH: EVQLQQSGPELVKPGTSVKMSCKTSGYTFTSYVMHWVKQKPGQGLEWIGYIIPYNDNTKYNEKFKGKATLTSDKSSSTAYMELSSLTSEDSAVYYCARRNEYYGSSFFDYWGQGTTLTVSS
VL: DIQMTQSPASLSASVGETVTITCRGSGILHNYLVWYQQKQGKSPQLLVYSAKILADGVPSRFSGSGSGTQYSLKINSLQPEDFGSYYCQHFWSTPFTFGSGTKLEIKR
modifications: heavy chain variable domain of 10G11; light chain variable domain of 10G11
notes: mouse anti-mouse IL-1β monoclonal antibody (clone 10G11) from IL-1α/β double KO mice
- mean sum Chambers scores and mean maximum Chambers scores (cartilage degeneration) (Male SV129 mice): not statistically significant
- reduction in mean arthritis score compared to control group (male DBA-1 mice): 24%
- paw withdrawal threshold (allodynia) (DMM mice): allodynic (painful)
